# From article PMC12412787
# T1: Pyl1p (Yarrowia lipolytica, UniProt Q6CBN1 1-600)
# T1 sequence: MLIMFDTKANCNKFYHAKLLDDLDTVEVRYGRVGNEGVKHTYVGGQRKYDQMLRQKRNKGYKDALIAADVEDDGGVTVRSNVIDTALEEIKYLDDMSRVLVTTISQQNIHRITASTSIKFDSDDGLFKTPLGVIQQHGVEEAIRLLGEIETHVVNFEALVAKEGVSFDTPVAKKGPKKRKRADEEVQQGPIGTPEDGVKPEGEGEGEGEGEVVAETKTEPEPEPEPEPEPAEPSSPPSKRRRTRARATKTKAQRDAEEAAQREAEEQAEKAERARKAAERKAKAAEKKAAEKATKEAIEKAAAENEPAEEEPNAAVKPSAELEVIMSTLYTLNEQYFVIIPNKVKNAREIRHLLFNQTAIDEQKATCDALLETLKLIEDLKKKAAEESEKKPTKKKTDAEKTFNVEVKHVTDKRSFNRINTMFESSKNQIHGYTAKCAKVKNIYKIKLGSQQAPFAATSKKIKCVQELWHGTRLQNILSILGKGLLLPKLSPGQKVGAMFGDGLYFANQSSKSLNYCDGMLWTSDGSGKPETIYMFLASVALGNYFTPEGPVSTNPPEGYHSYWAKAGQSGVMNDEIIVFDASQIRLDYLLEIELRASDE
# Target: T1, Pyl1p
# Experiment: EMSA
binder,measurement,value
dsTEL probe (YlipTEL_G/YlipTEL_C) (dsDNA) DNA 1: TTAGTCAGGGTTAGTCAGGG DNA 2: CCCTGACTAACCCTGACTAA,binding result,binds
